Experimental data as given in patent US6780986 (UNIVERSITY OF VERMONT AND STATE AGRICULTURAL COLLEGE, dated 2004).

B1: GST-Z2 (GST fused to the Z2 domain of RIP60, zinc fingers 6-8 plus 37 amino acids of the proline rich region) (other)
chain: GGDAVDRPFQCACCGKRFRHKPNLIAHRRVHTGERPHQCPECGKRFTNKPYLTSHRRIHTGEKPYPCKECGRRFRHKPNLLSHSKIHKRSEGSAQAAPGPGSPQLPAGPQESAAEPTPAVPLKPAQ
notes: Expressed in E. coli BL21 and purified on glutathione beads; also called GST-Z2(P12); GST-Z2-P12; not shown: glutathione-S-transferase (GST) purification tag, 26 kD, at the amino terminus; from vector pGEX-2T
B2: GST-Z23 (GST fused to hands Z2 and Z3 of RIP60) (other)
chain: PRPGGDAVDRPFQCACCGKRFRHKPNLIAHRRVHTGERPHQCPECGKRFTNKPYLTSHRRIHTGEKPYPCKECGRRFRHKPNLLSHSKIHKRSEGSAQAAPGPGSPQLPAGPQESAAEPTPAVPLKPAQEPPPGAPPEHPQDPIEAPPSLYSCDDCGRSFRLERFLRAHQRHDTGERPFTCAECGKNFGKKTHLVAHSPVHSGERPFACEECGRRFSQGSHLAAHRPDHAPDRPFVCPDCGKAFRHKPYLARHRRIHTGEKPYVCPDCGKAFSQKSNLVSHRRIHTGERPYACPDCDRSFSQKSNLITHRKSHIRDGAFCCAICGQTFDDEERLLAHQKKHDV
notes: The start of the range is derived from the domain limits; nucleotide 682 would give residue 228; also called pCH61 product; not shown: glutathione-S-transferase (GST) purification tag from vector pGEX-2T

Key:
[1] = molecular target: the molecule itself; test: gel shift multimers on DNA probe (self-association on DNA)
[2] = molecular target: the molecule itself; test: DNase I footprinting on the DHFR-E probe (self-association on DNA, inferred)
Source text: Materials and Methods: Probe DHFR-E-top was generated by digesting pUC/E with Bam HI, end-labeling by Klenow fill-in in the presence of [α-^32P]-dATP, and digesting with Bgl II. Probe DHFR-E-bottom was generated by digesting pUC/E with Bgl II, end-labeling by Klenow fill-in in the presence of [α-^32P]-dATP, and digesting with Bam HI. Footprinting probes were purified by gel electrophoresis and Geneclean (Bio 101), and resuspended in distilled water at a specific activity of 50,000 dpm/ul. Binding reactions (50 ul) that contained 50,000 dpm of labeled probe were assembled as for gel mobility shift assays. After incubation at 37° C. for 20 min and on ice for 15 min, one volume of a 5 mM CaCl_2, 10 mM MgCl2 solution was added for one minute at room temperature, followed by the addition of 0.02 units of DNase I for 1 min. Footprinting reactions were stopped with the addition of 90 ul prewarmed stop buffer (200 mM NaCl, 30 mM EDTA, 1% SDS), extracted with phenol, ethanol precipitated, and resuspended in sequencing dye buffer. Samples were resolved by electrophoresis at 65 W for 1.5 to 3.0 hours on denaturing 8% polyacrylamide gels. The gel was dried, exposed to Kodak XAR film at –80° C., and signals were detected by autoradiography.
Fusion proteins containing hand Z2 induced multiple hypersensitive sites on the top strand of DHFR-E, including the prominent site at position 3483.

| Protein | binding result [1] | binding result [2] |
| --- | --- | --- |
| B1 | binds | – |
| B2 | – | binds |
